{
  "source": "patent US20230272054A1",
  "about": "“COMBINATION THERAPIES FOR THE TREATMENT AND PREVENTION OF BIOFILMS” (priority 2020, published 2023)",
  "key": {"UPEC biofilms": {"system": "UPEC biofilms", "assay": "Disruption of 24 h UPEC biofilms in vitro (CLSM, COMSTAT average thickness)", "details": "24 h UPEC biofilms, 200 nM protein, 16 h"}, "Human neutrophils": {"system": "Human neutrophils", "assay": "NET formation by neutrophils incubated with HMGB1 isoforms (CLSM)", "assay_type": "cell-based", "details": "200 nM protein, 3.5 h", "method": "Neutrophils were fixed, then labeled as described above to visualize the NETs.\nVisualization of NETs structure upon incubation of neutrophils with various isoforms of HMGB1: Human neutrophils were isolated from blood using the EASYSEP™ isolation kit (Stemcell Technologies Inc.). […] NETs were fixed in formalin, blocked with 10% normal goat serum (Life Technologies), and labeled with α-dsDNA monoclonal antibody (1 μg), and α-neutrophil elastase polyclonal antibody (1 μg) or naive rabbit and mouse isotype controls (1 μg) in 200 μl PBS for 16 h hours at 4° C. NETs were washed with PBS and incubated for 1 h with 1:200 dilution goat α-rabbit IgG conjugated to ALEXAFLUOR® 594, goat α-mouse IgG conjugated to ALEXAFLUOR® 488, and 1:500 dilution wheat germ agglutinin conjugated to ALEXAFLUOR® 350 (PMN membrane stain). NETs were imaged with a Zeiss LSM 800 confocal microscope (Carl Zeiss Inc.) and rendered with Zeiss Zen software."}, "HJ DNA [1]": {"system": "HJ DNA", "assay": "Electrophoretic mobility shift assay (EMSA), binding to HJ DNA", "details": "20 nM 6-carboxyfluorescein HJ DNA, 50-500 nM protein, non-denaturing PAGE", "method": "Arrows indicate the HJ DNA-protein complex.\nFIG. 11A provides that NEM-modified rHMGB1 was confirmed by triton acetic acid urea gel (TAU gel). […] Arrows indicate the HJ DNA-protein complex.\n(§1) Electrophoretic mobility shift assay (EMSA): EMSA was performed as previously described (Devaraj et al., 2019)."}, "HJ DNA [2]": {"system": "HJ DNA", "assay": "Stabilization of HJ DNA at RT or 55° C, non-denaturing PAGE", "assay_type": "binding", "details": "32P HJ DNA, 25-500 nM protein, RT, 10 min", "method": "5′ end-labeled ^32P HJ DNA was incubated with increasing concentrations (25-500 nM) of IHF (FIG. 8A), rHMGB1 (FIG. 8B) or RuvA (FIG. 8C) either at room temperature (RT) or at 55° C. for 10 min, then resolved on a 6% non-denaturing PAGE. Asterisk indicates melted oligos and arrows indicate DNA-protein complex. […] This outcome contrasts with that observed with both IHF and the prototypic HJ DNA binding protein, RuvA.\nTo test the hypothesis, HJ DNA was incubated with either HMGB1, the DNABII protein IHF, or the prototypic HJ DNA binding protein, RuvA at room temperature (RT) or 55° C. (melting temperature of HJ DNA) and resolved the complexes by non-denaturing polyacrylamide gel electrophoresis (PAGE). […] (FIG. 8) as indicated by the decrease in abundance of the shifted HJ DNA-HMGB1 complex (arrow) and the concomitant increase in the constituent melted oligos (asterisk).\nas §1"}, "K. pneumoniae biofilms": {"system": "K. pneumoniae biofilms", "assay": "Disruption of 24 h K. pneumoniae biofilms in vitro (CLSM, COMSTAT average thickness)", "details": "24 h biofilms, 200 nM protein, 16 h"}, "B. cenocepacia biofilms": {"system": "B. cenocepacia biofilms", "assay": "Disruption of 24 h B. cenocepacia biofilms in vitro (CLSM, COMSTAT average thickness)", "details": "24 h biofilms, 200 nM protein, 16 h"}, "[3]": {"system": "Enterobacter spp biofilms", "assay": "Disruption of 24 h Enterobacter spp biofilms in vitro (CLSM, COMSTAT average thickness)", "details": "24 h biofilms, 200 nM protein, 16 h"}, "[4]": {"system": "biofilms formed by UPEC, B. cenocepacia, NTHI, Enterobacter spp, S. aureus, K. pneumoniae, A. baumanii, P. aeruginosa, E. faecium", "assay": "Disruption of 24 h bacterial biofilms in vitro by HMGB1 isoforms (LIVE/DEAD stain, CLSM, COMSTAT average thickness)", "details": "24 h biofilms of nine pathogens; 200 nM protein, 16 h (S. aureus 800 nM rHMGB1; E. faecium 800 nM, 1 h)"}},
  "note": "Entries after “also recorded” stand apart in the source; their conditions may differ.",
  "data": [
    {"molecule": "NEM-rHMGB1: rHMGB1 alkylated with N-ethylmaleimide (NEM)", "values": [
      {"measurement": "biofilm average thickness / anti-biofilm activity, UPEC", "setting": "UPEC biofilms", "result": "lost its anti-biofilm activity"},
      {"measurement": "induction of NET formation by neutrophils", "setting": "Human neutrophils", "result": "intertwined NETs specifically formed"},
      {"measurement": "induction of NET formation by neutrophils", "setting": "Human neutrophils; listed as NEM-HMGB1", "result": "induced neutrophils to form NETs"},
      {"measurement": "binding to HJ DNA (EMSA)", "setting": "HJ DNA [1]", "result": "lost its ability to bind HJ DNA; also recorded: unable to bind to HJ DNA"}
    ]},
    {"molecule": "IHF: the DNABII protein IHF (protein) chain 1: MATITKLDIIEYLSDKYHLSKQDTKNVVENFLEEIRLSLESGQDVKLSGFGNFELRDKSSRPGRNPKTGDVVPVSARRVVTFKPGQKLRARVEKTK chain 2: MTKSELMEKLSAKQPTLPAKEIENMVKGILEFISQSLENGDRVEVRGFGSFSLHHRQPRLGRNPKTGDSVNLSAKSVPYFKAGKELKARVDVQA", "values": [
      {"measurement": "HJ DNA-protein complex at room temperature (RT)", "setting": "HJ DNA [2]", "result": "bound to HJ DNA to form stable complexes at RT"}
    ]},
    {"molecule": "RuvA: the prototypic HJ DNA binding protein (protein, UniProt P0A809 1-203, looked up) Holliday junction branch …: MIGRLRGIIIEKQPPLVLIEVGGVGYEVHMPMTCFYELPEAGQEAIVFTHFVVREDAQLLYGFNNKQERTLFKELIKTNGVGPKLALAILSGMSAQQFVNAVEREEVGALVKLPGIGKKTAERLIVEMKDRFKGLHGDLFTPAADLVLTSPASPATDDAEQEAVAALVALGYKPQEASRMVSKIARPDASSETLIREALRAAL", "values": [
      {"measurement": "HJ DNA-protein complex at room temperature (RT)", "setting": "HJ DNA [2]", "result": "bound to HJ DNA to form stable complexes at RT"}
    ]},
    {"molecule": "Ox-rHMGB1: rHMGB1 oxidized with hydrogen peroxide (protein, UniProt P09429 1-215, looked up, oxidized with hydrogen peroxide) High mobility group protein B1: MGKGDPKKPRGKMSSYAFFVQTCREEHKKKHPDASVNFSEFSKKCSERWKTMSAKEKGKFEDMAKADKARYEREMKTYIPPKGETKKKFKDPNAPKRPPSAFFLFCSEYRPKIKGEHPGLSIGDVAKKLGEMWNNTAADDKQPYEKKAAKLKEKYEKDIAAYRAKGKPDAAKKGVVKAEKSKKKKEEEEDEEDEEDEEEEEDEEDEDEEEDDDDE", "values": [
      {"measurement": "biofilm average thickness / anti-biofilm activity, UPEC", "setting": "UPEC biofilms", "result": "lost its anti-biofilm effect as compared to rHMGB1"},
      {"measurement": "biofilm average thickness / anti-biofilm activity, UPEC", "setting": "UPEC biofilms; listed as ox-rHMGB1", "result": "significantly reduced upon oxidation"}
    ]},
    {"molecule": "P-rHMGB1: phosphorylated isoform of rHMGB1 (protein, UniProt P09429 1-215, looked up, phosphorylated) High mobility group protein B1: MGKGDPKKPRGKMSSYAFFVQTCREEHKKKHPDASVNFSEFSKKCSERWKTMSAKEKGKFEDMAKADKARYEREMKTYIPPKGETKKKFKDPNAPKRPPSAFFLFCSEYRPKIKGEHPGLSIGDVAKKLGEMWNNTAADDKQPYEKKAAKLKEKYEKDIAAYRAKGKPDAAKKGVVKAEKSKKKKEEEEDEEDEEDEEEEEDEEDEDEEEDDDDE", "values": [
      {"measurement": "biofilm average thickness / anti-biofilm activity, K. pneumoniae", "setting": "K. pneumoniae biofilms", "result": "significantly disrupted biofilms"},
      {"measurement": "biofilm average thickness / anti-biofilm activity, K. pneumoniae", "setting": "K. pneumoniae biofilms; listed as PrHMGB1", "result": "significantly disrupted"},
      {"measurement": "biofilm average thickness / anti-biofilm activity, B. cenocepacia", "setting": "B. cenocepacia biofilms", "result": "significantly disrupted biofilms"},
      {"measurement": "biofilm average thickness / anti-biofilm activity, B. cenocepacia", "setting": "B. cenocepacia biofilms; listed as PrHMGB1", "result": "significantly disrupted"},
      {"measurement": "biofilm average thickness / anti-biofilm activity, Enterobacter spp", "setting": "[3]", "result": "significantly disrupted biofilms"},
      {"measurement": "biofilm average thickness / anti-biofilm activity, Enterobacter spp", "setting": "[3]; listed as PrHMGB1", "result": "significantly disrupted"}
    ]},
    {"molecule": "Ac-rHMGB1: acetylated isoform of rHMGB1 (protein, UniProt P09429 1-215, looked up, acetylated) High mobility group protein B1: MGKGDPKKPRGKMSSYAFFVQTCREEHKKKHPDASVNFSEFSKKCSERWKTMSAKEKGKFEDMAKADKARYEREMKTYIPPKGETKKKFKDPNAPKRPPSAFFLFCSEYRPKIKGEHPGLSIGDVAKKLGEMWNNTAADDKQPYEKKAAKLKEKYEKDIAAYRAKGKPDAAKKGVVKAEKSKKKKEEEEDEEDEEDEEEEEDEEDEDEEEDDDDE", "values": [
      {"measurement": "biofilm average thickness / anti-biofilm activity, K. pneumoniae", "setting": "K. pneumoniae biofilms", "result": "significantly disrupted biofilms"},
      {"measurement": "biofilm average thickness / anti-biofilm activity, B. cenocepacia", "setting": "B. cenocepacia biofilms", "result": "significantly disrupted biofilms"},
      {"measurement": "biofilm average thickness / anti-biofilm activity, Enterobacter spp", "setting": "[3]", "result": "significantly disrupted biofilms"}
    ]},
    {"molecule": "nHMGB1: native HMGB1 purified from calf thymus, purchased from Chondrex Inc (protein, UniProt P10103 2-215, looked up) High mobility group protein B1: GKGDPKKPRGKMSSYAFFVQTCREEHKKKHPDASVNFSEFSKKCSERWKTMSAKEKGKFEDMAKADKARYEREMKTYIPPKGETKKKFKDPNAPKRPPSAFFLFCSEYRPKIKGEHPGLSIGDVAKKLGEMWNNTAADDKQPYEKKAAKLKEKYEKDIAAYRAKGKPDAAKKGVVKAEKSKKKKEEEEDEEDEEDEEEEEDEEDEEEEEDDDDE", "values": [
      {"measurement": "biofilm average thickness compared to control", "setting": "[4]", "result": "significantly disrupted bacterial biofilms"},
      {"measurement": "biofilm average thickness / anti-biofilm activity, UPEC", "setting": "UPEC biofilms", "result": "equivalent to that of rHMGB1"},
      {"measurement": "biofilm average thickness / anti-biofilm activity, B. cenocepacia", "setting": "B. cenocepacia biofilms", "result": "equivalent to that of rHMGB1"}
    ]}
  ]
}
